The text below walks through data of patent US9624471B2, “Methods for maturing cardiomyocytes and uses thereof” (UNIVERSITY OF WASHINGTON THROUGH ITS CENTER FOR …, priority 2013, dated 2017).

The test system of one data set is RUES2-CMs. Put plainly: Immunocytochemistry (α-actinin staining) and morphological analysis of lentivirally transduced cardiomyocytes. The format is cell-based, human. The note with it: for cell perimeter / cell area: let-7 OE CMs at roughly day 30; for cell perimeter: EV control 108±15 μm, n=50 cells per condition; for cell perimeter / cell area / sarcomere length: P<0.001; for cell area: EV control 380±70 μm^2; for Circularity index (4πArea/(perimeter)^2) / sarcomere length: let-7 OE CMs; for Circularity index (4πArea/(perimeter)^2): EV control 0.41±0.02; for sarcomere length: EV control 1.65±0.02 μm. As to the method:
Undifferentiated human embryonic stem cell (hESCs) lines H7 (NIHhESCC-10-0061) and RUES2 (NIHhESC-09-0013) were expanded using mouse embryonic fibroblast-conditioned medium with 5 ng/ml basic fibroblast growth factor. H7-CMs were derived using previously reported protocols^1-3. RUES2-CMs were used for all functional analyses and these were derived using a cardiac progenitor cell differentiation protocol^4 derived from previously reported monolayer directed differentiation methods^1, 5, 6. In brief, this involves the induction of a monolayer of hESCs with activin A and bone morphogenetic protein-4 (BMP4) under serum- and insulin-free conditions. During the early stages of differentiation, the cells were also exposed to the Wnt agonist CHIR 99021 followed by the Wnt antagonist Xav939. From 7 days of in vitro differentiation, the cells were fed every alternate day with serum-free RPMI-B27 plus insulin media. After 20 days of in vitro differentiation, the cells were trypsinized and replated. Only those cell preparations that had at least 70% cardiac troponin T-positive CMs (as observed by flow cytometry) were used for further experiments. For experiments where the H7-CMs were cultured for around a year, the cells were replated after the 3rd and 11th month from day 0. At the 11th month, FACS analysis for cTnT was conducted and the CMs were split into three parts and were cultured as three independent replicates for another 1.5 months after which they were harvested for RNA extraction. IMR90iPSC-CMs cultured for 1 yr were replated at day 20 and split every 2 months for 12 months before harvesting for RNA extraction. To generate engineered cardiac tissue, the inventors used the procedure reported by Tulloch et al.^2 In brief, day 20 CMs are suspended in the collagen gel at 10,000/μl, and rod-shaped constructs of 25 μl (1 mm radius×8 mm length) were generated by casting in a preformed mold and warming to 37° C. The ends of the mold contain Velcro-like micro-fiber loops, and these become impregnated with gel+cell mixture. These tabs allow the constructs to be maintained under static tension, which facilitates alignment and differentiation of the CMs. The constructs were maintained in the serum-free RPMI-B27 plus glutamine media up to 2 weeks. For let-7 overexpression analysis, the CMs were transduced with the virus carrying the pLKO-let-7 or empty vector control pLKO plasmid at day 12 of the directed differentiation protocol. After overnight transduction the virus was removed, cells were rinsed with PBS and new media added. The samples were analyzed at day 30 from the initiation of differentiation.
All morphological analyses were carried out using at least 50 cells. Cells replated in chamber slides were fixed in 4% paraformaldehyde for 15 minutes followed by PBS wash. The fixed cells were blocked for an hour with 1.5% normal goat serum and incubated O/N with mouse alpha actinin (sigma) primary antibody. The primary antibody was rinsed with PBS and incubated with secondary antibody (Alexa fluor 488 [Goat anti mouse]) for an hour followed by nuclear staining using DAPI. For cell area and perimeter measurements, images were acquired and processed using ZEISS™ AXIO fluorescent microscope and AXIOVISION™ software. For sarcomere length, images were acquired and processed using LEICA™ TCS-SPE confocal microscope and LEICA™ software. These confocal images were used to select 1-2 myofibrils per cell with at least ten continuous, well-recognized alpha-actinin bands and divided the length value by the number of sarcomeres. The images were further analyzed using IMAGE J™ software.
For lenti-let-7 OE constructs, Pri-miR-let-7i and pri-miR-let-7g sequence was amplified from H7 genomic DNA using forward primer for let-7i-TCCGCGTGGTCCCGT; reverse primer for let-7i-ATTGTCCTCCGCGGCGC and forward primer for let-7g-AGAGTTCCTCCAGCGCTCC; reverse primer for let-7g-CCCCACTTGGCAGCTGGC, resulting in 153 bp and 154 bp products, respectively. […]

In the next data set the test system is hESCs-CMs. In words: Contractile force and beat frequency measurement on arrays of microposts. The note with it: let-7 OE CMs; for beat frequency: EV control 1.57±0.1 hz; for average twitch force: EV control 7.77±0.7 nN/cell, P<0.001. The format is cell-based, human. As to the method: Arrays of silicone microposts were fabricated out of polydimethylsiloxane (PDMS) via a previously-described double-casting process using soft lithography from a SU8 master^19. Each micropost within the arrays used for these studies was 6.45 μm in height, 2.3 μm in diameter, and the center to center spacing between adjacent posts was 6 μm. Prior to cell seeding, the tips of these microposts were stamped with 50 μg/ml of mouse laminin (LIFE TECHNOLOGIES™), and the remaining surfaces of the array were fluorescently stained with BSA 594 and blocked with 0.2% Pluronic F-127 (in PBS)^20. CMs that were 1 week post pLKO-let-7 OE or EV lentiviral transfection, were seeded onto these arrays at a density of around 800,000 cells per substrate.
One week following cell seeding, muscle twitches from individual hESCs-CMs were recorded with high-speed video microscopy within a live cell chamber at 37° C. These images were acquired using a NIKON™ Ti-E upright microscope with a 60× water-immersion objective and a Hammamatsu ORCA™ camera. A custom MATLAB™ code was then used to compare each time frame of this video, to a reference fluorescent image, taken at the base plane of the posts. The twitch force at each post was subsequently calculated by multiplying the deflection of the post by the post's bending stiffness (38 nN/μm). The total twitch force produced by the cell was then determined by adding together the twitch force measured at each post beneath the cell. The average spontaneous beating frequency of the cells was determined by locating the time at which each beat reaches a maximum in the total twitch force (using the same MATLAB™ code), calculating the frequency between each sequential beat: 1/(time at which second beat occurs—time at which first beat occurs), and then averaging these frequencies across all of the measured twitch events.

The subject of another data set is HECT293FT cells. In words: Lipofectamine transient transfection of plko-let-7g and plko-let-7g-E plasmids, mature let-7g and target expression after 24 hrs. The format is cell-based. The note with it: 24 hrs after transfection. As to the method: FIGS. 20A-20B Modified let-7g (let-7g-E) is more efficient in generating mature let-7g in HECT293FT cells. Let-7g and a modified version of let-7g (plko-let-7g-E) were induced in hect 293 FT cells by introducing plko-let-7g and plko-let-7g-E plasmids with lipofectamine transient transfection assay. 24 hrs after transfection, cells were tested for mature let-7g expression. […] (FIG. 20B) Targets of let-7 are repressed when we over-express let-7g-E similar to that seen during over-expression of let-7g.

B1: let-7i: human let-7 family miRNA, SEQ ID NO: 10, overexpressed from pLKO lentiviral pri-miR-let-7i construct (nucleic acid, listed as Homo sapiens)
chain: CUGGCUGAGGUAGUAGUUUGUGCUGUUGGUCGGGUUGUGACAUUGCCCGCUGUGGAGAUAACUGCGCAAGCUACUGCCUUGCUA
With B1, in the data set on RUES2-CMs, the cell perimeter was determined as 300±7.4 μm, the cell area stood at 1110±101 μm^2, the “Circularity index (4πArea/(perimeter)^2)” value is 0.15±0.04 and the sarcomere length was 1.70±0.01 μm. In the data set on hESCs-CMs, this molecule came in with a beat frequency of 1.05±0.1 hz and an average twitch force of 11.32±0.86 nN/cell.

B2: let-7g: human let-7 family miRNA, SEQ ID NO: 9, overexpressed from pLKO lentiviral pri-miR-let-7g construct (nucleic acid, listed as Homo sapiens)
chain: AGGCUGAGGUAGUAGUUUGUACAGUUUGAGGGUCUAUGAUACCACCCGGUACAGGAGAUAACUGUACAGGCCACUGCCUUGCCA
Take B2: in the data set with RUES2-CMs, the cell perimeter is 302±3 μm, the cell area is on record as 980±95 μm^2, the “Circularity index (4πArea/(perimeter)^2)” value is given as 0.12±0.02 and the sarcomere length was determined as 1.69±0.01 μm. In the data set with HECT293FT cells, the “Targets of let-7 expression” value is reported as “repressed”. In addition, in the data set with hESCs-CMs, the beat frequency is reported as 0.92±0.094 hz and the average twitch force turned out to be 9.28±0.7 nN/cell.
